Assay: soluble on expression in E. coli; label from the status in PepcDB or PDB records

**Q.** With “VSELRLMAVHAHPDDESSKGAATLARYADEGHRVLVVTLTGGERGEILNPAMDLPDVHGRIAEIRRDEMTKAAEILGVEHTWLGFVDSGLPKGDLPPPLPDDCFARVPLEVSTEALVRVVREFRPHVMTTYDENGGYPHPDHIRCHQVSVAAYEAAGDFCRFPDAGEPWTVSKLYYVHGFLRERMQMLQDEFARHGQRGPFEQWLAYWDPDHDFLTSRVTTRVECSKYFSQRDDALRAHATQIDPNAEFFAAPLAWQERLWPTEEFELARSRIPARPPETELFAGIEP” as the sequence, how does the “soluble on expression in E. coli” value read?
**A.** soluble

**Q.** Which “soluble on expression in E. coli” value does the source give for “MVPLVAVVSGPRAQLFACLLRLGTQQVGPLQLHTGASHAARNHYEVLVLGGGSGGITMAARMKRKVGAENVAIVEPSERHFYQPIWTLVGAGAKQLSSSGRPTASVIPSGVEWIKARVTELNPDKNCIHTDDDEKISYRYLIIALGIQLDYEKIKGLPEGFAHPKIGSNYSVKTVEKTWKALQDFKEGNAIFTFPNTPVKCAGAPQKIMYLSEAYFRKTGKRSKANIIFNTSLGAIFGVKKYADALQEIIQERNLTVNYKKNLIEVRADKQEAVFENLDKPGETQVISYEMLHVTPPMSPPDVLKTSPVADAAGWVDVDKETLQHRRYPNVFGIGDCTNLPTSKTAAAVAAQSGILDRTISVIMKNQTPTKKYDGYTSCPLVTGYNRVILAEFDYKAEPLETFPFDQSKERLSMYLMKADLMPFLYWNMMLRGYWGGPAFLRKLFHLGMS” here?
**A.** not soluble

**Q.** For “MENSIEAYLADSREKVTLGTVVDCFKGKAVSSKVVPGDVGLINLSDMGTLGIQYHQLRTFQMDRRQLLRYLLEDGDVLIASKGTLKKVCVFHKQNRDVVASSNITVLRPQKLLRGYYIKFFLDSPIGQALLDVADHGKDVINLSTKELLDIPIPVIPLVKQDYLINHYLRGLTDYHRKLNRAEQEWEYIQNEIQKGLG”, which “soluble on expression in E. coli” value is on record?
**A.** soluble

**Q.** For “MSLKVSVIIPTYNERENLEELFSRIDNALQGLNYEIVVVDDDSPDRTWEKAQELSSKYPVKVIRRTKEKGLSSAVIRGFKEASGDVFVVMDADLQHPPEVIPKLIEAIKNGSDIAIGSRYVKGGKVENWPFYRKLISKGAIMVGRIALPKIRDIKDPVSGFFALRKEVVEGVELNPIGFKILMEILIKGKYSKVVEVPFTFGIRARGESKLKGKTIFEYLRHIYRLMKWEGEIDREGHHHHHH”, which “soluble on expression in E. coli” value is on record?
**A.** soluble

**Q.** For “MSLRKASVFIVELKFEQESCPLGVVIPLEESKNKLASVKPLVDLTRADMEQVNQLILSRAGSDVQMIPEVANHLISSGGKRLRPMLTLASASMFGYEGDHHIKLATSVEFMHTATLLHDDVVDESDLRRGKSTARTIWGNQASVLVGDFLLGQAFRMMVDVGSLDALDVLSTAASVIAEGEVLQLSVAKNMETTEDDYLQVIRAKTAALFAAAAEVGPIVAKTDKASRSALKSYGMNLGLAFQLVDDVLDYGGKSADLGKNTGDDFREGKITLPVILSYRRGTQDERAFWRNAIENGESSDENLEKALGLITKYNGLGDTIGRATHYGTIARDALAPLPESPWKNALLEVIDFCIERLNEGHHHHHH”, which “soluble on expression in E. coli” value is on record?
**A.** soluble

**Q.** Which “soluble on expression in E. coli” value does the source give for “MGSDKIHHHHHHMSRNSPLEISRTLVAALSTQMFRYYEDRIPQDASVLVVSNHRSFMDALILMAALSSPIRFACHHYMGQVPVMREIVTGQLGCFPLEETQNRQQSFFSQSQLLLQSKQMVGVFPEGTAPMVKSTQPNQVGEFQRGFAHLALRADVQDLAILPIAIASLEEVNTNGFPLRLLSVFDPSEPLFNQAGWHPLVIYRRVAVLIGRPYWITPQHQKKYHGKQARTVVAELTEHCHGEISHLLRQGCY” here?
**A.** not soluble

**Q.** With “MNQAIGGSFDDVIGNHQADTAMIVQISADRKEINLVSIPRDSLVDVPQCETSKGTIPAQYNVMFNSIFAGAYKTGGDLSSAASCTLNAVNSLTGLNIQNFIVVDFAGLVKMIDSVGGVDLCIPQNVNDPYTGLNLDKGMHHLDGVAATQYARIRHGIGDGSDTSRTTRQQYLIKQLMSEALSKNLFTDTAQLYQLAKSALKSLNISQGMADTAALAGLAMSLKNFTMTNLQTQTVPVVPAPSDPNRSVWTDEADNLWEKMRAGKPIFDTADSNSGGSSDTSSDNSASSDDSGTTDSNQSDTTAETPDPVTGLITKSDGTLVDPSTGGTVDPDDGSIHDATTGQYIGLADRYLNATVCAVPAKNLEHHHHHH” as the sequence, how does the “soluble on expression in E. coli” value read?
**A.** soluble

**Q.** For “MGSDKIHHHHHHDDDNDYYRYALPNALVTVKPVADNSFFMQLDDSTTLLPVNMKNSPYGEKEVRALVNFDPVNESSGEYDKAVHINWIDSILTKPIAGDLGDKNDEVYGTDPVDMINDWVTIAEDGYLTLRFRTMWGNRSQAHFVNLLMSKDAENPYEVEFRHNAFGDVYGEPADGLVAFNLDSLPDTEGKTVKLKLKWKSFNGEKTAEFDYCTRKSTPANSAAITAGRSVLRLK”, which “soluble on expression in E. coli” value is on record?
**A.** not soluble

**Q.** Which “soluble on expression in E. coli” value does the source give for “MSALDPQASARVARTPDAEPEAVDASAAGESAGLIARLGRLFERDRLPPPADLAQLFEARLTDVRANKLAQAWRLAYEQADGKRRRAMLGGLAQVGAGMQGDGAQGTRLFKRFNALPDGLRFLVALRADMLRWRKQVAGLQALDKELEALLSAWFDVGLLELRPLTWDSPASLLEKLILYEAVHEIRSWDDLRHRVAGDRRCYAYFHPQMPDVPLIFVEVAFSAQMADNVQALLDTSAPPQDLDKARWAIFYSISNTQPGLRGISFGNFLLKRVIDRLLQELPKLKFFATLSPIPGFADWLSRLDAQEVEQAVRDKARTRSGAPDGARWVARLARAATGKPSEVVQRAGLRLAARYLQAMRAGQPLDPVARFHLGNGARIERLNWAADTSAKGLAQSCGMMVNYLYELGDLDGNLARLNEGKPQVSRGIARLGLEHHHHHH” here?
**A.** not soluble

**Q.** For “MGSDKIHHHHHHMSSLGLIRNLPRSRFVPLVVLHDTDGPVADLFRREGIDFVAAPVLNRLARAAPRNGAAVVNVMRTLPALVRFLRASNASIVHTNDGRTHLIWGLAARVAGAKHLWHHRGDATSFGLRRVAPWLPNRLVAVSKFASPRPGIFSAASKCSVVHSPFDVTKMAGFEREEARNNVLAAIRCAPETKLLGYVGTLVDRKRPILFVEAVAALKRLSPETKVVGLFFGNALNGLDEAAKSRAEALGVADCIHFMGFRYPGEPWIAGLDALLVTAVNEPLGRTLVEAMLLGTPVVAADSGGNPEVVEDGRTGMLVRADDPDEFARACLKLFSDAALRDRIVETARNEVRARFSFERHVHAITSVYEELTGGMAAMQRSARAG”, which “soluble on expression in E. coli” value is on record?
**A.** not soluble

**Q.** Which “soluble on expression in E. coli” value does the source give for “EPDSVSIPITCCFNVINRKIPIQRLESYTRITNIQCPKEAVIFKTQRGKEVCADPKERWVRDSMKHLDQIFQNLKP” here?
**A.** soluble

**Q.** With “MSCVQQQRRSTGLRIAERLNKYITLPNRHSFTVDSKDVFQRGQVLSYIRSKAPFLLEHISEAKERLITVTSRGLMIIYENDDHGLVIDLRSARNVLCTADRSKKQRHFRCHIKIRMQRGNVHLFVGHNDVHKWTCAIMRAAGKCLPSTEPRDDGSLNVAMMTAVEDSGIFEEMSSTSSASYDYDEDDEVDEVKPTAIEQIPLPHVSVRSLRQKLEKELVLKPKEQVLAEQQHKANCDEPSFVSEIFCTPRAVFSDETVVLLEPTNARERREYEAQADRENQWWTRSLRC” as the sequence, how does the “soluble on expression in E. coli” value read?
**A.** not soluble

**Q.** For “MSLNASPQEDAGPEPVVYLVDDQQAELDLLQRWCSQEGLKTETFNQAEDLLKLLHADSHGCVVADLRMPRLSGLELQAEMSRRELTIPVILVTGHGDAENCRAAFQQGVFDFIEKGFRHEEILHAINSAIRKHRRDRFRHQVRKEALDLLRKISPRETEVMLLLAGGSPLKGIAQELSISVQTASKHRGSIFTKLNIDNEVDLYKMLLAAEVNLDVGEGHHHHHH”, which “soluble on expression in E. coli” value is on record?
**A.** soluble

**Q.** Which “soluble on expression in E. coli” value does the source give for “TKEHRAIARKTASESFVLLKNEGVLPLSKKGTIAVVGPLANTRSNMPGTWSVAAVLDNAPSLVEGLREVVGDRAKVVTAKGSNLIGDADYEKRATMFGRELHRDNRTDRELLDEALKVAAGADVIVAALGESSEMSGESSSRTNLEMPDVQRALLQELLKTGKSVVLVLFTGRPLVLTWEEEHVPAILNVWFGGSEAAYAISDVLFGDVNPSGKLTATFPQNVGQIPLFYNHKNTGRPLQEGRWFEKFRSNYLDVSNEPLYPFGYGL” here?
**A.** not soluble

**Q.** Which “soluble on expression in E. coli” value does the source give for “MGSDKIHHHHHHMFMERQDRYYQTYLNILKEELVAAMGCTEPIAIAYGAAKAREVLGAVPHKVVLEVSSNIIKNVKSVVVPNTDGLKGIEAATAAGIIAGRSDKILEVIAEVCQAEKQQIKTYLSETDIEVKLADSQIIFDIMITMFHQDSYVKLRIADYHTHIVHIEKNGEIIFGTGDLDAGISSLTDRKLLSVSKIIEFADSVRIEDVKELLDKQIEYNSAIARAGMEGNYGANVGRVLLKTYGNDVKIRAKAMAAAGSDARMSGCELPVIINSGSGNQGMTASLPVIEYAAELQSGEEKLYRALVVSNLITLHLKTGIGRLSAFCGVICAGCGSGAGIAYLHGGGYDEIAHTIVNAAAIVSGIVCDGAKPSCAGKIAAAVDAGILGYLMYKEGQQFRGGDGIVAKGIENTIANIGYLGKVGMKETDKEIINIMLNQCSS” here?
**A.** not soluble

**Q.** Which “soluble on expression in E. coli” value does the source give for “EIKQNEQRLNAIVQNLVSGVMLINVDKQVIMTNRTMYQILGETEITGKPFYEVIKSFALSQLIDATFETKTMQQKEIILYFPREMILDASVSPILAENGEITGIILLLHDIT” here?
**A.** not soluble

**Q.** Which “soluble on expression in E. coli” value does the source give for “MAKEKEKLFSEFPPVSREAWIDKITADLKGVPFEKKLVWRTNEGFNVNPFYRREDIEDLKTTTSLPDEYPYVRSTRMHNEWLVRQDIVVGDNVAEANEKALDLLNKGVDSLGFYLKKVHINVDTLAALLKDIELTAVELNFNCCITRAADLLSAFSAYVKKVGADPNKCHGSVSYDPFKKQLVRGVSNPDWVKMTLPVMDAARELPAFRVLNVNAVNLSDAGAFITQELGYALAWGAELLDKLTDAGYKPEEIASRIKFNFGIGSNYFMEIAKFRAARWLWAQIVGSYGDQYKNETAKIHQHATTSMWNKTVFDAHVNLLRTQTETMSAAIAGVDSITVLPFDVTYQQSDDFSERIARNQQLLLKEECHFDKVIDPSAGSYYIETLTNSIGEEAWKLFLSVEDAGGFTQAAETASIQKAVNASNIKRHQSVATRREIFLGTNQFPNFTEVAGDKITLAQGEHDCNCVKSIEPLNFSRGASEFEALRLATEKSGKTPVVFMLTIGNLAMRLARSQFSSNFFGCAGYKLIDNLGFKSVEEGVDAALAAKADIVVLCSSDDEYAEYAPAAFDYLAGRAEFVVAGAPACMADLEAKGIRNYVHVKSNVLETLRAFNDKFGIR” here?
**A.** not soluble

**Q.** With “SLENVLASHSKMQGALEKVQIELGRRDSEIAGLKKERDLNQQRVQKLEAEVDQWQARMLVMEDQHNSEIESLQKALGVAREDNRKLAMSLEQALQTNNHLQTKLDHIQEQLESKELERQNLETFKDRMTEESKVEAELHAERIEALRKQFQTERETTKKVAQREVAELKKALDEANFRSVEVSRTNRELRQKLAELEKILESNKEKIKNQKTQIKLHLSAKANNAQNIERMKVVWETSSHFLDTL” as the sequence, how does the “soluble on expression in E. coli” value read?
**A.** soluble

**Q.** Which “soluble on expression in E. coli” value does the source give for “MSLGQLLSHPIEEKELDYKSYTNLTYCIGSMQGYRMTMEDAHDVKINEHENLAVFGIFDGHGGKNCSQYLAEHLPKLVFTKLNKIASAVYLKQVKDIDLKDVFDILKNSFFKIDKDLSHHANMVNCGSTATVVTIIANYIVVANTGDSRCIVSRNGHAKPLSFDHKPSNMGERVRIENSNGYILNNRINEVLALSRAFGDFKFKLPYLSSSRNKYIKENQKLLGDKLITLPPELFQVTVEPDIMLYDMQKLDSPEFLVIACDGVWDCFKNGQLVKLIRDKLSLGWRLNKIVEYILNDSLTMANNYTGIGFDNMTLIIVAIHKEGHHHHHH” here?
**A.** soluble

**Q.** For “MATPSTGANNSIPAVRNQVEVQVGLVGDAQVGKTSLMVKYVQNIYDKEYTQTLGVNFLKRKVSIRSTDIIFSIMDLGGQREFINMLPIATVGSSVIIFLFDLTRPETLSSIKEWYRQAYGLNDSAIPILVGTKYDLLIDLDPEYQEQISRTSMKYAQVMNAPLIFCSTAKSINIQKIFKIALAKIFNLTLTIPEINEIGDPLLIYKHLGGQQHRHHNKSQDRKSHNIRKPSSSPSSKAPSPGVNT”, which “soluble on expression in E. coli” value is on record?
**A.** soluble
